In the supplement of paper PMC9112550, “Optimization of the antimicrobial peptide Bac7 by deep mutational scanning” (BMC Biology, 2022):

Tested on: Escherichia coli TOP10
Experiment: shrunken log2 fold change of peptide-encoding DNA abundance (4.5 h post-induction vs induction); higher = less antimicrobial activity (less host growth inhibition)
Details: time post-induction: 4.5 h; library: site-saturation at positions 5, 18, 19, 20
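Further: peptides expressed intracellularly from a pBAD plasmid library in pooled LB shake-flask culture, induced with 0.3% L-arabinose, DNA abundance read by NGS, three biological replicates, DESeq2 with apeglm shrinkage.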

Sequence | shrunken log2 fold change
RRIRGRPPRLPRPRPRPQIDPRP | 0.565
RRIRPRPPRLPRPRPRPHMGPRP | -0.461
RRIRPRPPRLPRPRPRPYDAPRP | -0.0642
RRIRVRPPRLPRPRPRPVDGPRP | 0.021
RRIRWRPPRLPRPRPRPVFMPRP | -0.0684
RRIRGRPPRLPRPRPRPLMYPRP | -0.00226
RRIRMRPPRLPRPRPRPRKIPRP | 0.322
RRIRHRPPRLPRPRPRPFHKPRP | -0.0218
RRIRGRPPRLPRPRPRPGLDPRP | 1.24
RRIRWRPPRLPRPRPRPAQKPRP | 0.157
RRIRKRPPRLPRPRPRPMLCPRP | -0.0829
RRIRGRPPRLPRPRPRPYGKPRP | -0.124
RRIRHRPPRLPRPRPRPNSIPRP | -0.0178
RRIRERPPRLPRPRPRPYKFPRP | -0.835
RRIRDRPPRLPRPRPRPPHDPRP | 2.35
RRIRRRPPRLPRPRPRPESNPRP | 0.219
RRIRHRPPRLPRPRPRPGCSPRP | -0.08
RRIRMRPPRLPRPRPRPVKIPRP | 0.514
RRIRRRPPRLPRPRPRPKRPPRP | 0.656
RRIRLRPPRLPRPRPRPMTDPRP | -0.189

Sequence | shrunken log2 fold change
RRIRCRPPRLPRPRPRPSKCPRP | -0.266
RRIRHRPPRLPRPRPRPIAIPRP | 0.0123
RRIRHRPPRLPRPRPRPEISPRP | 0.0458
RRIRWRPPRLPRPRPRPYREPRP | -0.773
RRIRRRPPRLPRPRPRPDVLPRP | 0.0203
RRIRGRPPRLPRPRPRPSWYPRP | -0.102
RRIRCRPPRLPRPRPRPNWRPRP | 0.437
RRIRVRPPRLPRPRPRPMQRPRP | -0.0413
RRIRHRPPRLPRPRPRPNGQPRP | 0.024
RRIRSRPPRLPRPRPRPEAHPRP | 0.16
RRIRFRPPRLPRPRPRPTDGPRP | 0.0745
RRIRSRPPRLPRPRPRPYGFPRP | -0.85
RRIRMRPPRLPRPRPRPHAYPRP | 0.0623
RRIRPRPPRLPRPRPRPDMAPRP | -0.119
RRIRDRPPRLPRPRPRPGIGPRP | 0.76
RRIRDRPPRLPRPRPRPSSFPRP | -0.178
RRIRQRPPRLPRPRPRPWRAPRP | 0.0749
RRIRLRPPRLPRPRPRPGPGPRP | 0.279
RRIRVRPPRLPRPRPRPHLDPRP | 0.0818
RRIRTRPPRLPRPRPRPIWPPRP | 0.173

Sequence | shrunken log2 fold change
RRIRMRPPRLPRPRPRPFMAPRP | -0.236
RRIRHRPPRLPRPRPRPFHAPRP | -0.0061
RRIRSRPPRLPRPRPRPGHRPRP | -0.326
RRIRCRPPRLPRPRPRPLQRPRP | 0.203
RRIRQRPPRLPRPRPRPQHGPRP | -0.000236
RRIRKRPPRLPRPRPRPEGSPRP | 0.102
RRIRVRPPRLPRPRPRPQTFPRP | -0.122
RRIRERPPRLPRPRPRPRHFPRP | -0.419
RRIRKRPPRLPRPRPRPVFCPRP | -0.126
RRIRVRPPRLPRPRPRPQCWPRP | 0.198
RRIRLRPPRLPRPRPRPGQPPRP | 0.187
RRIRERPPRLPRPRPRPNGVPRP | -0.2
RRIRERPPRLPRPRPRPDKRPRP | -0.023
RRIRFRPPRLPRPRPRPYQFPRP | 0.0166
RRIRGRPPRLPRPRPRPLHGPRP | 0.212
RRIRCRPPRLPRPRPRPHVEPRP | -0.421
RRIRQRPPRLPRPRPRPNRFPRP | -0.00894
RRIRMRPPRLPRPRPRPMDPPRP | 0.038
RRIRNRPPRLPRPRPRPFHEPRP | -0.00822
RRIRMRPPRLPRPRPRPRLDPRP | 0.897
